From US11833164B2, “Methods of treating Fabry disease in patients having a mutation in the GLA gene” (Amicus Therapeutics, Inc., priority 2019, dated 2023)
Positions count from the first letter of the chain named. Numbers in names are those of the source.

B1: L106P (protein)
chain: MQLRNPELHLGCALALRFLALVSWDIPGARALDNGLARTPTMGWLHWERFMCNLDCQEEPDSCISEKLFMEMAELMVSEGWKDAGYEYLCIDDCWMAPQRDSEGRPQADPQRFPHGIRQLANYVHSKGLKLGIYADVGNKTCAGFPGSFGYYDIDAQTFADWGVDLLKFDGCYCDSLENLADGYKHMSLALNRTGRSIVYSCEWPLYMWPFQKPNYTEIRQYCNHWRNFADIDDSWKSIKSILDWTSFNQERIVDVAGPGGWNDPDMLVIGNFGLSWNQQVTQMALWAIMAAPLFMSNDLRHISPQAKALLQDKDVIAINQDPLGKQGYQLRQGDNFEVWERPLSGLAWAVAMINRQEIGGPRSYTIAVASLGKGVACNPACFITQLLPVKRKLGFYEWTSRLRSHINPTGTVLLQLENTMQMSLKDLL
B2: L106V (protein)
chain: B1 chain with P106V
B3: I117M (protein)
chain: B1 chain with P106L, I117M
B4: G116R (protein)
chain: B1 chain with P106L, G116R
B5: D109E (protein)
chain: B1 chain with P106L, D109E
B6: Q107H (protein)
chain: B1 chain with P106L, Q107H
B7: A108V (protein)
chain: B1 chain with P106L, A108V
B8: F113V (protein)
chain: B1 chain with P106L, F113V
B9: H115D (protein)
chain: B1 chain with P106L, H115D
B10: Q107E (protein)
chain: B1 chain with P106L, Q107E
B11: P114L (protein)
chain: B1 chain with P106L, P114L
B12: A108E (protein)
chain: B1 chain with P106L, A108E
B13: F113Y (protein)
chain: B1 chain with P106L, F113Y
B14: D109Y (protein)
chain: B1 chain with P106L, D109Y
B15: D109A (protein)
chain: B1 chain with P106L, D109A
B16: H115N (protein)
chain: B1 chain with P106L, H115N
B17: P110T (protein)
chain: B1 chain with P106L, P110T
B18: Q107K (protein)
chain: B1 chain with P106L, Q107K
B19: D109N (protein)
chain: B1 chain with P106L, D109N
B20: D109H (protein)
chain: B1 chain with P106L, D109H
B21: I117T (protein)
chain: B1 chain with P106L, I117T

System: mutant form of α-Gal A expressed in HEK-293 cells
Test: HEK assay (GLP HEK / Migalastat Amenability Assay): α-Gal A activity in lysates of transiently transfected HEK-293 cells incubated with or without 10 μM migalastat
Type: cell-based, human
Settings: for Absolute increase (% WT): 10 μM migalastat versus baseline; for Relative increase: 10 μM migalastat α-Gal A activity relative to baseline; for 10 μM migalastat α-Gal A activity (% WT): 5 days; for 10 μM migalastat α-Gal A activity (% WT) / Baseline α-Gal A activity (% WT): percentage of baseline wild-type α-Gal A activity; for 10 μM migalastat α-Gal A activity (% WT) / Baseline α-Gal A activity (% WT) / Baseline α-Gal A activity / 10 μM migalastat α-Gal A activity: mean ± SEM; for Baseline α-Gal A activity / 10 μM migalastat α-Gal A activity: lysates of HEK-293 cells transfected with the mutant form; for Baseline α-Gal A activity: incubated 5 days in the absence of migalastat; for 10 μM migalastat α-Gal A activity: incubated 5 days with 10 μM migalastat
Method: Such mutations or variants are also referred to herein as “HEK assay amenable” mutations or variants.
The α-Gal A activity is expressed as the nmoles of free 4-MU released per milligram of protein per hour (nmol/mg/hr).
In Table 7, values for the mean±standard error of the mean (SEM) were calculated. nmol/mg/hr indicates “nmoles of free 4-MU released per mg of protein per hour”. WT indicates “wild-type”. NC indicates “not calculable”. N/A indicates “not applicable”.

Row | Molecule | Absolute increase (% WT) | Relative increase | 10 μM migalastat α-Gal A activity (% WT) | Baseline α-Gal A activity (% WT) (absence of migalastat) | Baseline α-Gal A activity | 10 μM migalastat α-Gal A activity | Baseline α-Gal A activity (nmol/mg/hr) (absence of migalastat, mean activity below the limit of detection (<142 nmol/mg/hr))
1 | B1 | 25.8 % WT | 1.8 | 56.5 ± 3.9 % WT | 30.7 ± 2.7 % WT | 8835 ± 878 nmol/mg/h | 16075 ± 1039 nmol/mg/h | 
2 | B2 | 19.8 % WT | 1.4 | 73.4 ± 5.9 % WT | 53.6 ± 4.3 % WT | 15393 ± 1288 nmol/mg/h | 20991 ± 1611 nmol/mg/h | 
3 | B3 | 29.4 % WT | 1.6 | 83.5 ± 3.6 % WT | 54.2 ± 3.9 % WT | 20226 ± 1373 nmol/mg/h | 31280 ± 1153 nmol/mg/h | 
4 | B4 | 9.9 % WT | 2.7 | 15.4 ± 1.5 % WT | 5.4 ± 0.3 % WT | 1922 ± 143 nmol/mg/h | 5251 ± 464 nmol/mg/h | 
5 | B5 | 9.3 % WT | 1.2 | 50.6 ± 3.6 % WT | 41.3 ± 3.4 % WT | 13839 ± 1179 nmol/mg/h | 16926 ± 1156 nmol/mg/h | 
6 | B6 | 9.1 % WT | 1.2 | 50.8 ± 2 % WT | 41.7 ± 1.5 % WT | 12307 ± 487 nmol/mg/h | 14822 ± 384 nmol/mg/h | 
7 | B7 | 34.4 % WT | 3.5 | 47.7 ± 4.6 % WT | 13.3 ± 1.7 % WT | 4914 ± 799 nmol/mg/h | 17249 ± 2284 nmol/mg/h | 
8 | B8 | 9.2 % WT | 10.6 | 10.3 ± 1 % WT | 1.1 ± 0.1 % WT | 341 ± 41 nmol/mg/h | 3614 ± 596 nmol/mg/h | 
9 | B9 | 14.1 % WT | 1.5 | 44.8 ± 3 % WT | 30.7 ± 2.9 % WT | 10284 ± 1141 nmol/mg/h | 15258 ± 1412 nmol/mg/h | 
10 | B10 | 10.4 % WT | 1.2 | 56.2 ± 3.3 % WT | 45.7 ± 3.1 % WT | 13148 ± 985 nmol/mg/h | 16149 ± 1059 nmol/mg/h | 
11 | B11 | 5.4 % WT | 1.3 | 23.7 ± 1.3 % WT | 18.3 ± 2.1 % WT | 6229 ± 901 nmol/mg/h | 7973 ± 626 nmol/mg/h | 
12 | B12 | 14.2 % WT | 1.4 | 52.6 ± 4.6 % WT | 38.4 ± 2.6 % WT | 11629 ± 835 nmol/mg/h | 15648 ± 1305 nmol/mg/h | 
13 | B13 | 4.4 % WT |  | 4.4 ± 0.3 % WT |  |  | 1328 ± 79 nmol/mg/h | BLD (“BLD” indicates that the mean α-Gal A activity was below the limit of detection (<142 nmol/mg/hr))
14 | B14 | 7.5 % WT | 11.9 | 8.2 ± 1.1 % WT | 0.7 ± 0.1 % WT | 212 ± 30 nmol/mg/h | 2530 ± 415 nmol/mg/h | 
15 | B15 | 20.4 % WT | 2.2 | 38 ± 3.7 % WT | 17.5 ± 2.2 % WT | 6345 ± 1034 nmol/mg/h | 13742 ± 1780 nmol/mg/h | 
16 | B16 | 30.1 % WT | 1.7 | 75 ± 2.5 % WT | 44.9 ± 2.5 % WT | 13745 ± 890 nmol/mg/h | 23018 ± 1098 nmol/mg/h | 
17 | B17 | 18.6 % WT | 1.3 | 81.2 ± 6.5 % WT | 62.6 ± 5.9 % WT | 20474 ± 1528 nmol/mg/h | 26745 ± 1678 nmol/mg/h | 
18 | B18 | 16.4 % WT | 1.4 | 54.6 ± 4.8 % WT | 38.2 ± 3.9 % WT | 14579 ± 2689 nmol/mg/h | 20402 ± 3399 nmol/mg/h | 
19 | B19 | 36.5 % WT | 8.4 | 41.5 ± 2.8 % WT | 5 ± 0.3 % WT | 1475 ± 83 nmol/mg/h | 12358 ± 973 nmol/mg/h | 
20 | B20 | 30.0 % WT | 2.2 | 54.6 ± 3.5 % WT | 24.6 ± 1.7 % WT | 7540 ± 684 nmol/mg/h | 16483 ± 1317 nmol/mg/h | 
21 | B21 | 4.7 % WT | 2.1 | 9 ± 0.9 % WT | 4.3 ± 0.2 % WT | 1607 ± 54 nmol/mg/h | 3303 ± 308 nmol/mg/h | 
